In the RNAGym collection of RNA variant scans (doi:10.7554/elife.80360):

B1: Hammerhead Ribozyme (parent)
chain: ACCGGAUGUGCUUUCCGGUCUGAUGAGUCCGUGAGGACGAAACAG

Variants of: B1
Experiment: self-cleavage, relative activity (ratio to wild type); higher = more cleavage; co-transcriptional

| Variant | self-cleavage |
| --- | --- |
| G31C A37U | 0.587 |
| A1U U24G | 0.508 |
| A26G U32C | 0.328 |
| G27A C30G | 0.458 |
| C20U G35C | 0.407 |
| C11A U24A | 1.14 |
| U13A A26G | 0.327 |
| A23G U32G | 0.366 |
| U21G A41C | 0.404 |
| A34C G35A | 0.893 |
| U9G A40G | 0.366 |
| A6C A34U | 0.529 |
| G17U A37U | 0.586 |
| U9C G10A | 1.19 |
| C11A G45U | 1.05 |
| G10U G39U | 0.313 |
| G5U A34G | 0.882 |
| U12A G39U | 0.361 |
| A40U G45U | 0.398 |
| G31A C38U | 0.919 |
| U24G G45A | 0.541 |
| G25C A26G | 0.265 |
| A1U U32C | 0.436 |
| U21A G35A | 0.52 |

| Variant | self-cleavage |
| --- | --- |
| G17A A44U | 0.449 |
| G18C G33A | 0.765 |
| A1U U13C | 0.94 |
| U14G G39U | 0.359 |
| G22U G36A | 0.316 |
| A6U G39C | 0.294 |
| G27A U28A | 0.643 |
| U9A C30U | 1.07 |
| U7C G35C | 0.849 |
| C11U C20A | 0.441 |
| U13A G36C | 1.03 |
| A6C C15A | 0.761 |
| A42C G45A | 0.539 |
| G8U G17U | 0.964 |
| A6U G33C | 0.551 |
| U9G G25C | 0.383 |
| A1U G8C | 0.599 |
| A37C A40G | 0.354 |
| A23C G36C | 0.351 |
| G8C U24C | 0.769 |
| G25U G31A | 0.338 |
| G18C G22U | 0.29 |
| A1G U28G | 1.33 |
| A23G G25U | 0.321 |

| Variant | self-cleavage |
| --- | --- |
| G22A A42C | 0.335 |
| U13C G25A | 0.395 |
| U13G A34G | 0.886 |
| U13G A34C | 0.79 |
| A26G A37G | 0.424 |
| G10U G45C | 0.828 |
| C2G A42C | 0.32 |
| U7C U21A | 0.327 |
| C11G G39U | 0.301 |
| A6G A41C | 0.299 |
| C3A C30U | 0.772 |
| G5A U13G | 1.72 |
| G8C G45U | 0.546 |
| C3U A44G | 1.49 |
| C2G A40G | 0.266 |
| C2G A40U | 0.287 |
| A6U C20A | 0.373 |
| A1U A6U | 0.46 |
| U12G G31U | 1.11 |
| U7A G10A | 1.33 |
| G18A A44G | 0.702 |
| C29A C38A | 0.426 |
| C11U U19C | 0.484 |
| C11U U19G | 0.329 |

| Variant | self-cleavage |
| --- | --- |
| C15A G17C | 0.328 |
| C11G C16A | 0.865 |
| U7G G25A | 0.272 |
| U28A A37C | 0.398 |
| G39A C43U | 0.341 |
| U21C G45C | 0.416 |
| C20U G27A | 0.373 |
| C16A U21A | 0.668 |
| G22C A42U | 0.368 |
| U9C A42U | 0.345 |
| C3A A6G | 0.366 |
| G22U U32A | 0.282 |
| U24A A26G | 0.332 |
| G8C G36A | 0.652 |
| A6U U7G | 0.829 |
| U9G G27C | 0.455 |
| C3U G45A | 0.468 |
| G31A A40C | 0.642 |
| U14C C30U | 0.613 |
| U32C A37G | 0.987 |
| A1C G25U | 0.377 |
| G4C U19G | 0.322 |
| A26C G36A | 0.395 |
| C16G C30G | 0.473 |

| Variant | self-cleavage |
| --- | --- |
| U12C A23C | 0.361 |
| U19A G36U | 0.302 |
| A23G U28G | 0.386 |
| G22A G39C | 0.385 |
| G18A G25A | 0.281 |
| G5C A26C | 0.282 |
| C16U C30A | 0.831 |
| G4U G39U | 0.29 |
| A26G A42U | 0.286 |
| U14G U19A | 0.383 |
| G8U A26U | 0.935 |
| C15A G45A | 0.498 |
| C15A A23U | 0.276 |
| C15A U32C | 0.952 |
| G8C U9C | 1.05 |
| A1G U32A | 1.68 |
| G5C U24C | 0.625 |
| U28A A34C | 0.623 |
| A6G G22U | 0.28 |
| U19A | 0.391 |
| G5A A44U | 0.532 |
| G22A C30U | 0.417 |
| C11U A41U | 0.278 |
| C11G U32A | 1.1 |

| Variant | self-cleavage |
| --- | --- |
| C29A G33U | 0.674 |
| U7G C16A | 0.989 |
| G8U A34C | 0.925 |
| G17A A42G | 0.327 |
| G18U G45A | 0.379 |
| A1C G27U | 0.328 |
| G22C A23G | 0.312 |
| A6U | 0.696 |
| A6G U32A | 0.968 |
| G5A G33C | 1.22 |
| G25A A40G | 0.267 |
| A23C G45U | 0.377 |
| C3U U14G | 0.78 |
| G8A A40C | 0.683 |
| G5U G10U | 1.15 |
| G8U A23C | 0.504 |
| G18C A42C | 0.328 |
| U32C G35A | 0.83 |
| G25U A42C | 0.29 |
| G33U G36A | 0.765 |
| C16G G31C | 0.823 |
| G27A A40C | 0.428 |
| U7C U12G | 1.43 |
| G4U U24G | 0.372 |

| Variant | self-cleavage |
| --- | --- |
| U14C U28C | 0.706 |
| C11G A41G | 0.413 |
| A23C U24A | 0.397 |
| A6C U9G | 0.578 |
| G22A G45C | 0.436 |
| C3A G27A | 0.365 |
| C3A U28G | 0.34 |
| C16G C43U | 0.285 |
| C16G C43A | 0.337 |
| C2A C16U | 0.554 |
| U14C U32A | 0.825 |
| A37U G45C | 0.363 |
| A37U G45A | 0.468 |
| U13C G33U | 1.14 |
| U14C G35U | 0.761 |
| C16G G33C | 0.956 |
| C3A C15U | 0.518 |
| C20G C29A | 0.312 |
| A26C G31A | 0.687 |
| A1G G18U | 0.894 |
| G39A A40U | 0.291 |
| G8A C38U | 0.926 |
| U14A G25A | 0.28 |
